Holding throughout (type): biochemical
Series [1] can be described thus: Carboxylate reductase activity assay, N7-acetyl-7-aminoheptanoate to N7-acetyl-7-aminoheptanal (NADPH consumption, absorbance at 340 nm). The settings on record: purified enzyme enhanced by the gene product of sfp, 2 mM N7-acetyl-7-aminoheptanoate, 1 mM ATP, 1 mM NADPH, pH=7.5, room temperature, 20 min; against the empty vector control; FIG. 12. The protocol:
The activity of each of the N-terminal His-tagged carboxylate reductases of SEQ ID NOs: 3, 6, and 7 (see Examples 4, and FIGS. 7B, 7E, and 7F) for converting N7-acetyl-7-aminoheptanoate to N7-acetyl-7-aminoheptanal was assayed in triplicate in a buffer composed of a final concentration of 50 mM HEPES buffer (pH=7.5), 2 mM N7-acetyl-7-aminoheptanoate, 10 mM MgCl2, 1 mM ATP, and 1 mM NADPH. The assays were initiated by adding purified carboxylate reductase and phosphopantetheine transferase or the empty vector control to the assay buffer containing the N7-acetyl-7-aminoheptanoate then incubated at room temperature for 20 min. The consumption of NADPH was monitored by absorbance at 340 nm.

A short description of series [2]: Carboxylate reductase activity assay, pimelate semialdehyde to heptanedial (NADPH consumption, absorbance at 340 nm). The note with it: purified enzyme enhanced by the gene product of sfp, 2 mM pimelate semialdehyde, 1 mM ATP, 1 mM NADPH, pH=7.5, room temperature, 20 min; against the empty vector control; FIG. 13. The protocol:
The N-terminal His-tagged carboxylate reductase of SEQ ID NO 7 (see Example 4 and FIG. 7F) was assayed using pimelate semialdehyde as substrate. The enzyme activity assay was performed in triplicate in a buffer composed of a final concentration of 50 mM HEPES buffer (pH=7.5), 2 mM pimelate semialdehyde, 10 mM MgCl2, 1 mM ATP and 1 mM NADPH. The enzyme activity assay reaction was initiated by adding purified carboxylate reductase and phosphopantetheine transferase or the empty vector control to the assay buffer containing the pimelate semialdehyde and then incubated at room temperature for 20 min. The consumption of NADPH was monitored by absorbance at 340 nm.

Series [3] can be described thus: Carboxylate reductase activity assay, pimelate to pimelate semialdehyde (NADPH consumption, absorbance at 340 nm). The settings on record: purified enzyme enhanced by the gene product of sfp, 2 mM pimelate, 1 mM ATP, 1 mM NADPH, pH=7.5, room temperature, 20 min; against the empty vector control; FIG. 10. The protocol:
A sequence encoding a HIS-tag was added to the genes from Segniliparus rugosus and Segniliparus rotundus that encode the carboxylate reductases of SEQ ID NOs: 4 and 7, respectively (see FIGS. 7C and 7F), such that N-terminal HIS tagged carboxylate reductases could be produced. Each of the modified genes was cloned into a pET Duet expression vector along with a sfp gene encoding a HIS-tagged phosphopantetheine transferase from Bacillus subtilis, both under the T7 promoter. Each expression vector was transformed into a BL21[DE3] E. coli host and the resulting recombinant E. coli strains were cultivated at 37° C. in a 250 mL shake flask culture containing 50 mL LB media and antibiotic selection pressure, with shaking at 230 rpm. Each culture was induced overnight at 37° C. using an auto-induction media.
The pellet from each induced shake flask culture was harvested via centrifugation. Each pellet was resuspended and lysed via sonication, and the cell debris was separated from the supernatant via centrifugation. […]
Enzyme activity assays (i.e., from pimelate to pimelate semialdehyde) were performed in triplicate in a buffer composed of a final concentration of 50 mM HEPES buffer (pH=7.5), 2 mM pimelate, 10 mM MgCl2, 1 mM ATP and 1 mM NADPH. […] The consumption of NADPH was monitored by absorbance at 340 nm.

The values below come from patent US9637764B2, “Methods of producing 7-carbon chemicals via carbon chain elongation associated with cyclohexane carboxylate synthesis” (INVISTA North America S.á r.l., priority 2012, dated 2017).

B1: SEQ ID NO 7: Segniliparus rotundus carboxylate reductase, Genbank Accession No. ADG98140.1 (protein, listed as Segniliparus rotundus)
chain: MTQSHTQGPQASAAHSRLARRAAELLATDPQAAATLPDPEVVRQATRPGLRLAERVDAILSGYADRPALGQRSFQTVKDPITGRSSVELLPTFDTITYRELRERATAIASDLAHHPQAPAKPGDFLASIGFISVDYVAIDIAGVFAGLTAVPLQTGATLATLTAITAETAPTLFAASIEHLPTAVDAVLATPSVRRLLVFDYRAGSDEDREAVEAAKRKIADAGSSVLVDVLDEVIARGKSAPKAPLPPATDAGDDSLSLLIYTSGSTGTPKGAMYPERNVAHFWGGVWAAAFDEDAAPPVPAINITFLPLSHVASRLSLMPTLARGGLMHFVAKSDLSTLFEDLKLARPTNLFLVPRVVEMLYQHYQSELDRRGVQDGTREAEAVKDDLRTGLLGGRILTAGFGSAPLSAELAGFIESLLQIHLVDGYGSTEAGPVWRDGYLVKPPVTDYKLIDVPELGYFSTDSPHPRGELAIKTQTILPGYYKRPETTAEVFDEDGFYLTGDVVAQIGPEQFAYVDRRKNVLKLSQGEFVTLAKLEAAYSSSPLVRQLFVYGSSERSYLLAVIVPTPDALKKFGVGEAAKAALGESLQKIARDEGLQSYEVPRDFIIETDPFTVENGLLSDARKSLRPKLKEHYGERLEAMYKELADGQANELRDIRRGVQQRPTLETVRRAAAAMLGASAAEIKPDAHFTDLGGDSLSALTFSNFLHDLFEVDVPVGVIVSAANTLGSVAEHIDAQLAGGRARPTFATVHGKGSTTIKASDLTLDKFIDEQTLEAAKHLPKPADPPRTVLLTGANGWLGRFLALEWLERLAPAGGKLITIVRGKDAAQAKARLDAAYESGDPKLAGHYQDLAATTLEVLAGDFSEPRLGLDEATWNRLADEVDFISHPGALVNHVLPYNQLFGPNVAGVAEIIKLAITTRIKPVTYLSTVAVAAGVEPSALDEDGDIRTVSAERSVDEGYANGYGNSKWGGEVLLREAHDRTGLPVRVFRSDMILAHQKYTGQVNATDQFTRLVQSLLATGLAPKSFYELDAQGNRQRAHYDGIPVDFTAESITTLGGDGLEGYRSYNVFNPHRDGVGLDEFVDWLIEAGHPITRIDDYDQWLSRFETSLRGLPESKRQASVLPLLHAFARPGPAVDGSPFRNTVFRTDVQKAKIGAEHDIPHLGKALVLKYADDIKQLGLL
Turning to B1, the “carboxylate reductase activity for converting N7-acetyl-7-aminoheptanoate to N7-acetyl-7-aminoheptanal” value in series [1] is “accepted N7-acetyl-7-aminoheptanoate as substrate”. Moreover, the “carboxylate reductase activity for converting pimelate semialdehyde to heptanedial” value in series [2] is “accepted pimelate semialdehyde as substrate”. In addition, the “carboxylate reductase activity for converting pimelate to pimelate semialdehyde” value in series [3] is recorded as “accepted pimelate as substrate”.
